Experimental findings from the DeepSol protein solubility set are described below.

The data set in a line: soluble on expression in E. coli; label from the status in PepcDB or PDB records.
Turning to “MSLQGIHTISFVGLGLIGASLMQALKRAAGATGRNIEMIGFDPAFDAADIVAITGECGLDRFEPDPAKLYNADLVVLCAPVVTNIALLDEAKRHIRKDTLVSDVSSTKAEIAAKAQELGIEFIGMHPIAGREQQGYQAASPELLDGRLVILCTECATLETTLATELAGLLRAAGCKPLFMSPEEHDRVYANISHLPQLISTALMAHCRENVEWAGPGFASMARLAGSPWAVWRDIVETNRSNIADEMEAFSALLADVAGEVRGGNFEALESKFREANDLYQRLQERSSEGHHHHHH”, the “soluble on expression in E. coli” value is reported as “soluble”.

With “ADVYDIGRGAVMYVAGGKVSWAPRGGNEVKFEPVPKELKLVANRLHTSFPPHHVVDMSKFTFITPGSGVSMRVEYQYGCLPADTVPEGNCWWRLLDSLPPEVQYKEIRHANQFGYQTKHGVPGKYLQRRLQVNGLRAVTDTHGPIVIQYFSVKESWIRHLKLVEEPSLPGFEDLLRIRVEPNTSPLAGKDEKIFRFGSHKWYG”, the “soluble on expression in E. coli” value is reported as “soluble”.

As to “MASRAPKEVPLCPLMTDGETRNVTDLPGPTNWPLLGSLLEIFWKGGLKKQHDTLAEYHKKYGQIFRMKLGSFDSVHLGSPSLLEALYRTESAHPQRLEIKPWKAYRDHRNEAYGLMILEGQEWQRVRSAFQKKLMKPVEIMKLDKKINEVLADFLERMDELCDERGRIPDLYSELNKWSFESICLVLYEKRFGLLQKETEEEALTFITAIKTMMSTFGKMMVTPVELHKRLNTKVWQAHTLAWDTIFKSVKPCIDNRLQRYSQQPGADFLCDIYQQDHLSKKELYAAVTELQLAAVETTANSLMWILYNLSRNPQAQRRLLQEVQSVLPDNQTPRAEDLRNMPYLKACLKESMRLTPSVPFTTRTLDKPTVLGEYALPKGTVLTLNTQVLGSSEDNFEDSHKFRPERWLQKEKKINPFAHLPFGIGKRMCIGRRLAELQLHLALCWIIQKYDIVATDNEPVEMLHLGILVPSRELPIAFRPR”, the “soluble on expression in E. coli” value is given as “soluble”.

With “MFNCLGMGNRDFIEGASGATWVDLVLEGDSCLTIMANDKPTLDVRMINIEASQLAEVRSYCYHASVTDISTVARCPTTGEAHNEKRADSSYVCKQGFTDRGWGNGCGFFGKGSIDTCAKFSCTSKAIGRTIQPENIKYKVGIFVHGTTTSENHGNYSAQVGASQAAKFTVTPNAPSVTLKLGDYGEVTLDCEPRSGLNTEAFYVMTVGSKSFLVHREWFHDLALPWTSPSSTAWRNRELLMEFEGAHATKQSVVALGSQEGGLHQALAGAIVVEYSSSVMLTSGHLKCRLKMDKLALKGTTYGMCTEKFSFAKNPVDTGHGTVVIELSYSGSDGPCKIPIVSVASLNDMTPVGRLVTVNPFVATSSANSKVLVEMEPPFGDSYIVVGRGDKQINHHWHKAGSTLGKA”, the “soluble on expression in E. coli” value was “not soluble”.

With “MGSDKIHHHHHHMLDAQHIQALKEIVGEENCFDDKAHKLAYCYDATRNRYEPDAVIFPRCEEDVSRLLAYCNTHKITIVPRGAGSGFTGGSLPVNGGIVLAFEKHMNKILEIDMENMVARVQPGVVNKRLQEAVEAMGLFYPPDPASEEYSTLGGNVSENAGGMRAAKYGITKDYVMALRAVLPNGDIIRAGKKTIKDVAGYNIAGILIASEGTLAVITEITLKLLSKPKLRQSAMGVFPTIESAMNAVYKTMAAGVTPVAMEFLDNLTIRAVESKFSKGLPVEAGAILITDMDGNLPEEIELQMAKIEEKFKENGALSFKKAASEEEAKDLWFARRNASQSVTIYGKKKLNEDITVPRSKLPELLQRINAISERYGVKTPCFGHTGDGNVHVNVMVEDGSDPKQLEIGHQAIEEIFKAAVELEGTLSGEHGIGISKAPFMHLAFTPEEMNLFRAIKQAFDPNNILNNGKMAL”, the “soluble on expression in E. coli” value is given as “not soluble”.

Turning to “MGSDKIHHHHHHMTSTLPVPEPHQSDSANTDANSLSWEEELDSAIFSFEDIQTELNYKQAQTALRNLVANLDLTPQEKTGLETEIADLETMLGKLDRMVVQIAAFGMVGRGKSSLLNSLVGQTVFETGPLHGVTRTAQTVNWSISEEAIGETERALRVTLPGVGQSQVKLIDTPGLDEVDGATRAVLAEQIAKQADLILFVISGDMTKLEYAALSQLREAGKPIILVFNKVDQYPEADRMAIYHKIRDERVRELLTPLEIVMAAASPLVKTAIRRPDGTRGIQLRTGNAQVEELKLKILEILHREGKALVALNTMLYADVVNEQLIERKLMIREQNANQLIWKAVMTKALAIALNPVTVVDILSSVVIDIALILGLSKLYGFSMTEAGAVQLLQKIALSMGGIGASELLANLGLSGLKTLLGISATATAGVALGPYISVAVTQGGVAGVSSYGIGQVTKVYLANGATWGPDGPKAVINRILANLDETSILNRIKDELLHKVRLRK”, the “soluble on expression in E. coli” value is “not soluble”.

Consider “MQALNSISSLQTSASLFPVSLNSDVSANTSTSSKELKAVIDQLVQALTQSGQLDETSPLGKMLAKAMAADGKSANSIDDITASLDKLIHEKLGDNFGASAGIGAGGGGGGIGGAGSGSGVGGGLSSDAGAGQSDLMSQVLNGLGKAVLDDLLTPSGEGGTTFSSDDMPTLEKVAQFMDDNKAQFPTRDGGSWMNELKEDNGLDAQETAQFRSALDVIGQQLGQQQGDASGVTSGGGLGSPVSDSSLGNPAIDANTGPAANGNASVDVGQLIGQLIDRGLQSVSSGGGLGTPVDNSTQPTGGTPAANPTGNVSNQDLGQLLSGLLQRGLEATLQDAGNTGADLQSSAAQVAAQLINALLQGTNNQTNQAVALEHHHHHH”, for which the “soluble on expression in E. coli” value was “soluble”.

With “MYDCAAPSLSTGRNTMNHTAELEKALTDLRHITGISMEIHAETEEEVTKALEQLKLLSSAYKEKYNKIHFLQSLMTDSIPTYNVYDRAARLHIAPEEPRILYLLETSHSLDEDISEILKNLFPSQSGAFRIPLTEASCAILCPVRSLADSSQETVHLTARMIVDTVNAEALARVRVSYSKTLHNLLDLSTAFRETSLALKVGKLFYSEQTVFPYNRLGIGRLIYRLPTSLCENFLHEIFGEEIPQALDEETTATVNKFLQNNLNIAETSRQLHMHRNTLIYRLEQIEKRTGLDLRQFEDAMTFKIASMVMNYLYTERNIPHE”, the “soluble on expression in E. coli” value is reported as “not soluble”.

“AHHHHHHASAKWVCKICGYIYDEDAGDPDNGISPGTKFEELPDDWVCPICGAPKSEFEKLEDGSFKLYSLAREFARDLLFEINGDVVTLSIKGVLLANTSSTSSNFSIFEVSENEFILAIQTSGYVVYLGIEAEEEIEEEVYPSLVRIIISEVMPIINNLVQVAKELSYKGADILLDDNMSSSLREAMYNLLLKHKKGKSPYEQVEVA”: the “soluble on expression in E. coli” value is on record as “soluble”.

As to “MKLYYTPGSCSLSPHIVLRETGLDFSIERIDLRTKKTESGKDFLAINPKGQVPVLQLDNGDILTEGVAIVQYLADLKPDRNLIAPPKALERYHQIEWLNFLASEVHKGYSPLFSSDTPESYLPVVKNKLKSKFVYINDVLSKQKCVCGDHFTVADAYLFTLSQWAPHVALDLTDLSHLQDYLARIAQRPNVHSALVTEGLIKE”, the “soluble on expression in E. coli” value was “soluble”.

As to “MAHHHHHHMHSVVPMSSYIHPTQVSIGAAPRMAVQEMHPDAKRKGRRVVATMELKPGNAIFAAPPDIAVLYSPFARHICARCLVADVRACAEPLKAHHHHHQHPHQQPHATLSRSPVGASSSPSSLSSSTAAPAAAPVRPYCCPNCDQFVLCAPCVAQLLLDSGVDVTSAAGTDAVQTTAPLLQRRGEGKRGVSVVDERLHLHPLLRAHAISCAWYTSLPASIRAPGNDTDFLRFCLDYGARAYLGDTAMMRALATLDTNASVQSKESMQLCEVFARDRVVATFGKEPKAVTATTLATAASAKHMGIDPLSNQAGTHASGGIHRGGNSDGVRCRGSAAVSPFPPRYPISWTDLRDTLLRTRCNSIGFPYNTEETTGWSLHQTVCMLNHSCVPNAAVIMLYDSADAMAAAAALAARTGASHTAPPKERTQEAARRKASERIAAFRAVATSSESPYSTSYSPSLAGWIGIEATRPIAAGEEITISYVDLGSLGDDLQTRSRHLLEQYRFLCTCELCMRQRSLKR”, the “soluble on expression in E. coli” value is listed as “not soluble”.

For the sequence “AEIKAVSAARLLDVASGKYVDNPLVIVTDGRITSIGKKGDAVPAGATAVDLPGVTLLPGLIDMHVHLDSLAEVGGYNSLEYSDRFWSVVQTANAKKTLEAGFTTVRNVGAADYDDVGLREAIDAGYVPGPRIVTAAISFGATGGHCDSTFFPPSMDQKNPFNSDSPDEARKAVRTLKKYGAQVIKICATGGVFSRGNEPGQQQLTYEEMKAVVDEAHMAGIKVAAHAHGASGIREAVRAGVDTIEHASLVDDEGIKLAVQKGAYFSMDIYNTDYTQAEGKKNGVLEDNLRKDRDIGELQRENFRKALKAGVKMVYGTDAGIYPHGDNAKQFAVMVRYGATPLQAIQSATLTAAEALGRSKDVGQVAVGRYGDMIAVAGDPLADVTTLEKPVFVMKGGAVVKAP”, the “soluble on expression in E. coli” value is listed as “soluble”.

Regarding “MGSDKIHHHHHHMGYRLTRENLNTLFHKLKEDYLIYAPKRLIGKGAFSDTDRVRYDKINNVEEIEFDVKSDFSFKEILLPISETLFFFTEDSVKEAEGPKKGAIIFLRSCDINAVKRLDQIYLKNGFEDHYYKRIREKVKFVLMPCKTSFENCFCVSMGTNQADMYDASVELREEHFYIDNKEEKWKEFLKEVSLEELEVKPSFVMENKTKVKVPEGITTKIFKSKMWDEYDSRCINCGRCNFVCPTCTCFSMQDIFYTDNGKAGERRRVWASCMVDGFTNVAGGGSYRSKNGQRMRFKVMHKVYDYKKRNGYHMCVGCGRCDDICPEYISFSNCINKLKGAIKEVEDNE”, the “soluble on expression in E. coli” value is “not soluble”.

Turning to “VSPKTYKDADFYVAPTQQDVNYDLVDDFGANGNDTSDDSNALQRAINAISRKPNGGTLLIPNGTYHFLGIQMKSNVHIRVESDVIIKPTWNGDGKNHRLFEVGVNNIVRNFSFQGLGNGFLVDFKDSRDKNLAVFKLGDVRNYKISNFTIDDNKTIFASILVDVTERNGRLHWSRNGIIERIKQNNALFGYGLIQTYGADNILFRNLHSEGGIALRMETDNLLMKNYKQGGIRNIFADNIRCSKGLAAVMFGPHFMKNGDVQVTNVSSVSCGSAVRSDSGFVELFSPTDEVHTRQSWKQAVESKLGRGCAQTPYARGNGGTRWAARVTQKDACLDKAKLEYGIEPGSFGTVKVFDVTARFGYNADLKQDQLDYFSTSNPMCKRVCLPTKEQWSKQGQIYIGPSLAAVIDTTPETSKYDYDVKTFNVKRINFPVNSHKTIDTNTESSRVCNYYGMSECSSSRWER”, the “soluble on expression in E. coli” value is reported as “soluble”.

Turning to “ALTEEILNAQPNPICVKDRNLHYIAVNKAFSAIHDLAPDAMLGRSASDLVETELAEHFERSDRHVLETGTPYSEAEHIVRADGSDLWVVTRKYRVGLPDRHFVVTCMNDVT”, the “soluble on expression in E. coli” value is on record as “not soluble”.

With “MNTDELEHRRFDDLFSLVADPGFLLVAWDLVRGNKGASAAGVDGSTASSIALWVGVEKFLDMLRSQIKDRSFQPMPVRERMIPKAGGKLRRLGIATITDRVVQASLKLARFGEAAPGKRTGRKTGTAPRADFTPAIGCAFRYSPVLEHHHHHH”, the “soluble on expression in E. coli” value is given as “not soluble”.

Consider “MGSDKIHHHHHHMKTRADLFAFFDAHGVDHKTLDHPPVFRVEEGLEIKAAMPGGHTKNLFLKDAKGQLWLISALGETTIDLKKLHHVIGSGRLSFGPQEMMLETLGVTPGSVTAFGLINDTEKRVRFVLDKALADSDPVNFHPLKNDATTAVSQAGLRRFLAALGVEPMIVDFAAMEVVG”, for which the “soluble on expression in E. coli” value is reported as “soluble”.

On to “MGSDKIHHHHHHMSYKVINVITAIDYIEEHLSEKLDLDIVANAVHYSKYHLHRTFTTSVGLTMHDYIKRRKLTEAAKLLVFSKKPIIEIALIAGYESQQAFTSIFKAMYKKSPNKYRKEQEFYPLQLRFVLKKDNLFLKNVLELEKEIKLASMSDIPLWMNLVRLVIDGFPNLQEEEYIYQLEQYILEERALILKLNNVAIANMVFNRETRSIDFFGIHPQYRNSDIAQVFLKKVIEDFLIDTDISITTFREGDKADTGHRDMIKKLGFAEAELLVEFGYPTQKFILPLS”, for which the “soluble on expression in E. coli” value is “not soluble”.

In the case of “MRVYVFTPDGDVLDLPHGVTPLDFAYHVHSNLGHRCRGAKVNGHIVPLTYQLKTGDRVEVLTGKEIKPSRLEHHHHHH”, the “soluble on expression in E. coli” value is reported as “not soluble”.
